Results reported in US20110166062A1 (INDIANA UNIVERSITY RESEARCH AND TECHNOLOGY, published 2011).
Bridges are numbered along the chain shown (N, C = ends). Where no end group is shown, it is not given here. [ ]: non-standard residue; d: D form. Aib = CC(C)(N)C(=O)O

T1: GIP receptor (UniProt P48546 22-466)
T1 sequence (looked up): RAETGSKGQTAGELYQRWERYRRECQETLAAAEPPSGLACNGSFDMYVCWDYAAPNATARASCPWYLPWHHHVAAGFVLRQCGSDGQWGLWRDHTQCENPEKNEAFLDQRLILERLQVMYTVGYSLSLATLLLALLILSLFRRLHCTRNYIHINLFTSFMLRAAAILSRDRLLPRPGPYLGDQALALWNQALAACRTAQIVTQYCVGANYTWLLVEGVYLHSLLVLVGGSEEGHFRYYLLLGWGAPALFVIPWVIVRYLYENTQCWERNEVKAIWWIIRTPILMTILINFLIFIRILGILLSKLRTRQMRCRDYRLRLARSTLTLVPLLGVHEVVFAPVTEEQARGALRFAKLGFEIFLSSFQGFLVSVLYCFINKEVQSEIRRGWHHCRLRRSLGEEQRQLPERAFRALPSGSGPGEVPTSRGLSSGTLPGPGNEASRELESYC

B1: mt-157 (peptide)
peptide: YSQGTFTSDYSIYLDEQAAKEFVEWLLKGGPSSGAPPPS-NH2
modifications: lactam 24-28; N-terminus assumed
SMILES: CC[C@H](C)[C@H](NC(=O)[C@H](CO)NC(=O)[C@H](Cc1ccc(O)cc1)NC(=O)[C@H](CC(=O)O)NC(=O)[C@H](CO)NC(=O)[C@@H](NC(=O)[C@H](Cc1ccccc1)NC(=O)[C@@H](NC(=O)CNC(=O)[C@H](CCC(N)=O)NC(=O)[C@H](CO)NC(=O)[C@@H](N)Cc1ccc(O)cc1)[C@@H](C)O)[C@@H](C)O)C(=O)N[C@@H](Cc1ccc(O)cc1)C(=O)N[C@@H](CC(C)C)C(=O)N[C@@H](CC(=O)O)C(=O)N[C@@H](CCC(=O)O)C(=O)N[C@@H](CCC(N)=O)C(=O)N[C@@H](C)C(=O)N[C@@H](C)C(=O)N[C@@H](CCCCN)C(=O)N[C@@H](CCC(=O)O)C(=O)N[C@@H](Cc1ccccc1)C(=O)N[C@H](C(=O)N[C@H]1CCC(=O)NCCCC[C@@H](C(=O)NCC(=O)NCC(=O)N2CCC[C@H]2C(=O)N[C@@H](CO)C(=O)N[C@@H](CO)C(=O)NCC(=O)N[C@@H](C)C(=O)N2CCC[C@H]2C(=O)N2CCC[C@H]2C(=O)N2CCC[C@H]2C(=O)N[C@@H](CO)C(N)=O)NC(=O)[C@H](CC(C)C)NC(=O)[C@H](CC(C)C)NC(=O)[C@H](Cc2c[nH]c3ccccc23)NC1=O)C(C)C
B2: mt-158 (peptide)
peptide: Y[Aib]QGTFTSDYSIYLDEQAAKEFVCWLLAGGPSSGAPPPS-NH2
modifications: lactam 16-20; N-terminus assumed
SMILES: CC[C@H](C)[C@H](NC(=O)[C@H](CO)NC(=O)[C@H](Cc1ccc(O)cc1)NC(=O)[C@H](CC(=O)O)NC(=O)[C@H](CO)NC(=O)[C@@H](NC(=O)[C@H](Cc1ccccc1)NC(=O)[C@@H](NC(=O)CNC(=O)[C@H](CCC(N)=O)NC(=O)C(C)(C)NC(=O)[C@@H](N)Cc1ccc(O)cc1)[C@@H](C)O)[C@@H](C)O)C(=O)N[C@@H](Cc1ccc(O)cc1)C(=O)N[C@@H](CC(C)C)C(=O)N[C@@H](CC(=O)O)C(=O)N[C@H]1CCC(=O)NCCCC[C@@H](C(=O)N[C@@H](CCC(=O)O)C(=O)N[C@@H](Cc2ccccc2)C(=O)N[C@H](C(=O)N[C@@H](CS)C(=O)N[C@@H](Cc2c[nH]c3ccccc23)C(=O)N[C@@H](CC(C)C)C(=O)N[C@@H](CC(C)C)C(=O)N[C@@H](C)C(=O)NCC(=O)NCC(=O)N2CCC[C@H]2C(=O)N[C@@H](CO)C(=O)N[C@@H](CO)C(=O)NCC(=O)N[C@@H](C)C(=O)N2CCC[C@H]2C(=O)N2CCC[C@H]2C(=O)N2CCC[C@H]2C(=O)N[C@@H](CO)C(N)=O)C(C)C)NC(=O)[C@H](C)NC(=O)[C@H](C)NC(=O)[C@H](CCC(N)=O)NC1=O
B3: mt-162 (peptide)
peptide: Y[Aib]QGTFTSDYSYYLDEQAVKEFVNWLIAGGPSSGAPPPS-NH2
modifications: lactam 16-20; N-terminus assumed
SMILES: CC[C@H](C)[C@H](NC(=O)[C@H](CC(C)C)NC(=O)[C@H](Cc1c[nH]c2ccccc12)NC(=O)[C@H](CC(N)=O)NC(=O)[C@@H](NC(=O)[C@H](Cc1ccccc1)NC(=O)[C@H](CCC(=O)O)NC(=O)[C@@H]1CCCCNC(=O)CC[C@H](NC(=O)[C@H](CC(=O)O)NC(=O)[C@H](CC(C)C)NC(=O)[C@H](Cc2ccc(O)cc2)NC(=O)[C@H](Cc2ccc(O)cc2)NC(=O)[C@H](CO)NC(=O)[C@H](Cc2ccc(O)cc2)NC(=O)[C@H](CC(=O)O)NC(=O)[C@H](CO)NC(=O)[C@@H](NC(=O)[C@H](Cc2ccccc2)NC(=O)[C@@H](NC(=O)CNC(=O)[C@H](CCC(N)=O)NC(=O)C(C)(C)NC(=O)[C@@H](N)Cc2ccc(O)cc2)[C@@H](C)O)[C@@H](C)O)C(=O)N[C@@H](CCC(N)=O)C(=O)N[C@@H](C)C(=O)N[C@@H](C(C)C)C(=O)N1)C(C)C)C(=O)N[C@@H](C)C(=O)NCC(=O)NCC(=O)N1CCC[C@H]1C(=O)N[C@@H](CO)C(=O)N[C@@H](CO)C(=O)NCC(=O)N[C@@H](C)C(=O)N1CCC[C@H]1C(=O)N1CCC[C@H]1C(=O)N1CCC[C@H]1C(=O)N[C@@H](CO)C(N)=O
B4: mt-163 (peptide)
peptide: YSQGTFTSDYSIYLDEQAAKEFVNWLLAG-NH2
modifications: lactam 16-20; N-terminus assumed
SMILES: CC[C@H](C)[C@H](NC(=O)[C@H](CO)NC(=O)[C@H](Cc1ccc(O)cc1)NC(=O)[C@H](CC(=O)O)NC(=O)[C@H](CO)NC(=O)[C@@H](NC(=O)[C@H](Cc1ccccc1)NC(=O)[C@@H](NC(=O)CNC(=O)[C@H](CCC(N)=O)NC(=O)[C@H](CO)NC(=O)[C@@H](N)Cc1ccc(O)cc1)[C@@H](C)O)[C@@H](C)O)C(=O)N[C@@H](Cc1ccc(O)cc1)C(=O)N[C@@H](CC(C)C)C(=O)N[C@@H](CC(=O)O)C(=O)N[C@H]1CCC(=O)NCCCC[C@@H](C(=O)N[C@@H](CCC(=O)O)C(=O)N[C@@H](Cc2ccccc2)C(=O)N[C@H](C(=O)N[C@@H](CC(N)=O)C(=O)N[C@@H](Cc2c[nH]c3ccccc23)C(=O)N[C@@H](CC(C)C)C(=O)N[C@@H](CC(C)C)C(=O)N[C@@H](C)C(=O)NCC(N)=O)C(C)C)NC(=O)[C@H](C)NC(=O)[C@H](C)NC(=O)[C@H](CCC(N)=O)NC1=O
B5: mt-164 (peptide)
peptide: Y[Aib]QGTFTSDYSIYLDEQAAKEFVNWLLAG-NH2
modifications: lactam 16-20; N-terminus assumed
SMILES: CC[C@H](C)[C@H](NC(=O)[C@H](CO)NC(=O)[C@H](Cc1ccc(O)cc1)NC(=O)[C@H](CC(=O)O)NC(=O)[C@H](CO)NC(=O)[C@@H](NC(=O)[C@H](Cc1ccccc1)NC(=O)[C@@H](NC(=O)CNC(=O)[C@H](CCC(N)=O)NC(=O)C(C)(C)NC(=O)[C@@H](N)Cc1ccc(O)cc1)[C@@H](C)O)[C@@H](C)O)C(=O)N[C@@H](Cc1ccc(O)cc1)C(=O)N[C@@H](CC(C)C)C(=O)N[C@@H](CC(=O)O)C(=O)N[C@H]1CCC(=O)NCCCC[C@@H](C(=O)N[C@@H](CCC(=O)O)C(=O)N[C@@H](Cc2ccccc2)C(=O)N[C@H](C(=O)N[C@@H](CC(N)=O)C(=O)N[C@@H](Cc2c[nH]c3ccccc23)C(=O)N[C@@H](CC(C)C)C(=O)N[C@@H](CC(C)C)C(=O)N[C@@H](C)C(=O)NCC(N)=O)C(C)C)NC(=O)[C@H](C)NC(=O)[C@H](C)NC(=O)[C@H](CCC(N)=O)NC1=O

molecular target: GLP-1 receptor (UniProt P43220 24-463, limits assumed); assay: cell-based or functional assay

Binder	EC50 [nM]	relative activity [%]
B1	0.081	37
B2	0.034	103
B3	0.011	109
B4	0.04	30
B5	0.046	56.5

molecular target: T1, GIP receptor; assay: cell-based or functional assay

Binder	EC50 [nM]	relative activity [%]
B1	1.01	4
B2	0.174	17.8
B3	0.136	25.7
B4	0.74	4.73
B5	0.164	16.5

molecular target: glucagon receptor (UniProt P47871 26-477, limits assumed); assay: cell-based or functional assay
Sequence (P47871 26-477 limits assumed): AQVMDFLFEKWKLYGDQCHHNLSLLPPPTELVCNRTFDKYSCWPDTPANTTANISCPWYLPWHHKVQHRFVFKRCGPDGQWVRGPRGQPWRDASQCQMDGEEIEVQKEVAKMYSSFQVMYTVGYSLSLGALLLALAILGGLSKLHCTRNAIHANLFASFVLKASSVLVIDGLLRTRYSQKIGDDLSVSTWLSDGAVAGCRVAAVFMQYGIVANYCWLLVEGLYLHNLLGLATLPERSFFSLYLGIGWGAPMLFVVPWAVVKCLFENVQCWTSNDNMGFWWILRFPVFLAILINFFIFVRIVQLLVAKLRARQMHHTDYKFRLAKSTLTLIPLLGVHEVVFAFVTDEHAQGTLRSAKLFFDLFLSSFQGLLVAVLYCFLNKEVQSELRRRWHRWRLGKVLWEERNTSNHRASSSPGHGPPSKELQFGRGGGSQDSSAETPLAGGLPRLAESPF

Binder	EC50 [nM]	relative activity [%]
B1	2.62	6.92
B2	1.05	14.9
B3	7	0.97
B4	0.027	252
B5	0.151	110
